For data set [1], the target named is T1, TGF-β1 (Homo sapiens, UniProt P01137 P01137:279-390). As to the kind of experiment: SPR; +. The following applies: tags: Recombinant Human TGF-β1, Peprotech; chain copies: 2 (homodimer, inferred). (Surface plasmon resonance follows binding to a sensor surface in real time, without labels.)
For data set [2], the target named is T1, TGF-β1. As to the kind of experiment: SPR; receptor-binding inhibition, 10 nM:30 nM. The following applies: tags: Recombinant Human TGF-β1, Peprotech; chain copies: 2 (homodimer, inferred). Here is the method: Measurement of Inhibitory Activity of Aptamer Against TGF-β1-2 Whether or not the nucleic acids of SEQ ID NOs: 6, 9, 19, 21, 26 inhibit the binding of TGF-β1 to the TGF-β receptor was evaluated by surface plasmon resonance method. For the measurement, Biacore T200 manufactured by GE Healthcare was used, and the measurement was performed by the method shown below. About 1500 RU of protein A was immobilized on the surface of a sensor chip of CM4 chip by using an amine coupling kit. 20 μL of Fc fusion TRII receptor (R&D) adjusted to 30 nM was injected as an analyte at a flow rate of 20 μL/min. As a result, the Fc fusion TRII receptor was immobilized on the surface of the sensor chip of the CM4 chip via protein A. Furthermore, a mixed solution of TGF-β1 (4 nM) or TGF-β1 (10 nM), and nucleic acid (30 nM) was injected. Solution A was used as the running buffer. Based on the RU value of a sample injected with TGF-β1 alone and the RU value before injection of TGF-β1, the effect of suppressing an increase in the RU value when TGF-β1 was injected in the presence of nucleic acid was calculated as the effect of inhibiting the binding of TGF-β1 to the TRII receptor.

For data set [3], the target named is T1, TGF-β1. As to the kind of experiment: cell_activity; SBE-luciferase HEK293, 80 pM:20 nM. The note with it: tags: Recombinant Human TGF-β1, Peprotech; chain copies: 2 (homodimer, inferred). Here is the method: (§1) Whether the nucleic acids of SEQ ID NOs: 4-13, 17-22, 26-28 inhibit the activity of TGF-β1 was evaluated by a cell assay system that monitors Smad signaling pathway known to be activated by the stimulation of TGF-β. To be specific, photinus luciferase equipped with SBE (Smad-binding element) in the promoter region was used as a reporter (pGL4.48[luc2P/SBE/Hygro] Vector, Promega KK). Together with this SBE-induced photinus luciferase reporter plasmid, a renillaluciferase expression plasmid (pGL4.74[hRluc/TK] Vector, Promega KK) was mixed at a ratio of 20:1 as a standardized control for transfection efficiency, and transfected into HEK293 cells. The transfected HEK293 cells were re-seeded in a 96-well plate and cultured until confluent. TGF-β1 and a mixture of nucleic acid aptamers of SEQ ID NOs: 4-13, 17-22, 26-28 synthesized using T7 RNA polymerase (Y639F) were added thereto to respective final concentrations of 80 pM, 20 nM, and the cells were cultured for 3 hr. Thereafter, the expression levels of photinus luciferase and renillaluciferase were confirmed using Dual-Luciferase (registered trade mark) Reporter Assay System (Promega KK). The measurement value of photinus luciferase in each sample was corrected with the measured value of renillaluciferase, and the relative expression level of each sample was calculated by setting the ratio of photinus luciferase and renillaluciferase in a sample free of addition of TGF-β1 as 1. […] When a nucleic acid pool of 35N, 40N or 50N (SEQ ID NO: 14, 1, 23) was used as a negative control and a known TGF-β antibody (R&D, MAB1835) was used as a positive control, the same treatment and measurement were performed.

Data set [4] has as its target T1, TGF-β1. In words: SPR. The following applies: tags: Recombinant Human TGF-β1, Peprotech; chain copies: 2 (homodimer, inferred).
Data set [5] has as its target T1, TGF-β1. In words: cell_activity; 80 pM:20 nM. The note with it: tags: Recombinant Human TGF-β1, Peprotech; chain copies: 2 (homodimer, inferred); G4 (predicted). Here is the method:
as §1
Whether or not these nucleic acids inhibit the activity of TGF-β1 was evaluated by a luciferase reporter assay similar to that in Example 4, as in Example 1.

T1 sequence (P01137 279-390, one chain of several): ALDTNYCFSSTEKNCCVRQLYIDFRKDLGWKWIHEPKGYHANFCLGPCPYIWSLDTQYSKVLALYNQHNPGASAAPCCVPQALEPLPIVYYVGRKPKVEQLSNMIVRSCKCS

B1: SEQ ID NO: 13 (ssRNA)
RNA: GGGAUCCGCAUCUAGAGUACACUAGUCACAUUGCGUGUACAUUACUCUGCGCAAUCGAUAAACGUCUACUGAAGCUAUCA
modifications: 2'-F all pyrimidines (U,C)
For the molecule B1, in data set [1], the binding result is “binds”.

B2: SEQ ID NO: 27 (ssRNA)
RNA: GGGAAUGCACUAGUGUUCAACAUUUAGCAACACAAGUCGUCCCCCACGGCAAGCAGUCCUCAAUCCUGACAAGCUUGCACGUCGAGUCAG
modifications: 2'-F all pyrimidines (U,C)
For B2, in data set [1], the binding result is “binds”.

B3: SEQ ID NO: 26 (ssRNA)
RNA: GGGAAUGCACUAGUGUUCAACCCCGACCAAUAGCAGCCCGUCUUUAACUAUUGGAAUCGCAUACGGGCCCAAGCUUGCACGUCGAGUCAG
modifications: 2'-F all pyrimidines (U,C)
With B3, in data set [2], the binding signal stood at 84.3 % inhibition. Besides, in data set [3], the activity amounted to 81 % inhibition.

B4: SEQ ID NO: 10 (ssRNA)
RNA: GGGAUCCGCAUCUAGAGUACGAUGCAUGUUUUUAUAAAGUAUUGUUAUGUAAUGCAUCAAAACGUCUACUGAAGCUAUCA
modifications: 2'-F all pyrimidines (U,C)
Regarding B4, the qualitative in data set [4] was at most 10 RU.

B5: SEQ ID NO: 7 (ssRNA)
RNA: GGGAUCCGCAUCUAGAGUACGAAUAGUAAGGGAAUGACUCUCGGACCAAUGUAUUGCUAUAACGUCUACUGAAGCUAUCA
modifications: 2'-F all pyrimidines (U,C)
As to B5, in data set [4], the qualitative was at most 10 RU.

B6: SEQ ID NO: 9 (ssRNA)
RNA: GGGAUCCGCAUCUAGAGUACCAUAAGGGUGGGGAGACUUGGGAGAGGGCAAAGAAGACUAAACGUCUACUGAAGCUAUCA
modifications: 2'-F all pyrimidines (U,C)
As to B6, the binding signal in data set [2] turned out to be 70.2 % inhibition. In data set [3], the activity turned out to be 80 % inhibition.

B7: SEQ ID NO: 35 (ssRNA)
RNA: GGGAGAACUUGGAGCUCCUGAAUAAGGGAGGGGAGACUUGUGGAGGGCAAGAGUGCGACGUCAGUC
modifications: 2'-F all pyrimidines (U,C)
Turning to B7, in data set [5], the activity is 100 % inhibition.

B8: SEQ ID NO: 38 (ssRNA)
RNA: GGGAGAACUUGGAGCUCCUGAAUAAGGGUGGGGAGACUUGUGGAGGGCAAGAGUGCGACGUCAGUC
modifications: 2'-F all pyrimidines (U,C)
As to B8, the activity in data set [5] is 100 % inhibition.

B9: SEQ ID NO: 40 (ssRNA)
RNA: GGGAGAACUUGGAGCUCCUGAAUAAGGGAGGGGAGACUUGUGGAGGGCAGAAGUGCGACGUCAGUC
modifications: 2'-F all pyrimidines (U,C)
Turning to B9, the activity in data set [5] was 100 % inhibition.

B10: SEQ ID NO: 37 (ssRNA)
RNA: GGGAGAACUUGGAGCUCCUGAAUAAGGGAGGGGAGACUUGUGGUGGGCAAGAGUGCGACGUCAGUC
modifications: 2'-F all pyrimidines (U,C)
In the case of B10, in data set [5], the activity is 100 % inhibition.

B11: SEQ ID NO: 8 (ssRNA)
RNA: GGGAUCCGCAUCUAGAGUACGAUGUGCUUGUGCUGAAAUUAGAUUUCGCCGACUUUCCCUAACGUCUACUGAAGCUAUCA
modifications: 2'-F all pyrimidines (U,C)
As for B11, in data set [4], the qualitative was at most 10 RU.

B12: SEQ ID NO: 17 (ssRNA)
RNA: GGGAGAACUUGGAGCUGAUGUCUGGAGUCCCCAUAUAUCACGUACAGUGUAGUGCGACGUCAGUC
modifications: 2'-F all pyrimidines (U,C)
Consider B12, for which the binding result in data set [1] is reported as “binds”.

B13: SEQ ID NO: 12 (ssRNA)
RNA: GGGAUCCGCAUCUAGAGUACCUAGAGGUGACUUGGGACGCGAGUUAUAAGGGAAUAGUCCAACGUCUACUGAAGCUAUCA
modifications: 2'-F all pyrimidines (U,C)
Take B13: the qualitative in data set [4] was at most 10 RU.

B14: SEQ ID NO: 6 (ssRNA)
RNA: GGGAUCCGCAUCUAGAGUACUUGUAUAAGUGGAGGGCGAGACUUGGGAGGGGCGAAUUGAAACGUCUACUGAAGCUAUCA
modifications: 2'-F all pyrimidines (U,C)
In the case of B14, the binding signal in data set [2] amounted to 75 % inhibition. Besides, in data set [3], the activity came to 98 % inhibition.

The values above are taken from patent US20220282255, “APTAMER FOR TGF-BETA1 AND USE OF SAME” (RIBOMIC INC., published 2022).
